# Measured values as given in patent publication US20260275311, “CRISPR NUCLEASE POLYPEPTIDES AND GENE EDITING SYSTEMS COMPRISING SUCH” (ARBOR BIOTECHNOLOGIES, INC., published 2026).
# Where a chain is given by its changes, count along the chain named.
# T1: Nuclease A
# T1 chain: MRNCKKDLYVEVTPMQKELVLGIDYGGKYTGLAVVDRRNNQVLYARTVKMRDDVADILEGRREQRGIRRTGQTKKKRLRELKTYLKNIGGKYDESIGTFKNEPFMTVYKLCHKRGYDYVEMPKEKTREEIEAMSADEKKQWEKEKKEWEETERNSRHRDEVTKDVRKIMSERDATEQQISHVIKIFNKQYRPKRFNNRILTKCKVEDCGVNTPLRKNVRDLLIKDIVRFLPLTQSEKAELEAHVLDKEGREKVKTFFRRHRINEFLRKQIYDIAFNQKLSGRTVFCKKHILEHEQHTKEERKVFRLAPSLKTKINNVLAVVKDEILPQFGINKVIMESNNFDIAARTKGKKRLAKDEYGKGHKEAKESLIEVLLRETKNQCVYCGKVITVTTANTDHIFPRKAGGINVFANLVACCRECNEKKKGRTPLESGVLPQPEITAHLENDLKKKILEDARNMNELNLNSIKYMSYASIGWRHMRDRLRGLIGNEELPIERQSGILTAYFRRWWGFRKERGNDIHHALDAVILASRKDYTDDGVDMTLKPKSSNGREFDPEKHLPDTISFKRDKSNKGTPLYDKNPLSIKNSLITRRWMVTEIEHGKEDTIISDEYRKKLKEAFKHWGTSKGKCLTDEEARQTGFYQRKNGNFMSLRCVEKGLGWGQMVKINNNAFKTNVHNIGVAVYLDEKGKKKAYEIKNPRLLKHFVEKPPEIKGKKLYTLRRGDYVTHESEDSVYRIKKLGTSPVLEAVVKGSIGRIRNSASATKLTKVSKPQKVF
# T2: Nuclease A I67R/D568R/E706R
# T2 chain: T1 chain with I67R, D568R, E706R
# T3: Nuclease A I67R (I67R)
# T3 chain: T1 chain with I67R
# B1: Nuclease A VEGFA-T6 guide ; VEGFA-T6 target (ssRNA ; dsDNA)
# RNA: UUUGCCCAUACUGGGGACCAGUUACAGUUAAGGCUCUUUGGAAACAAAGAAGCCUUAAUUGUAAAACGCCUAUAUGGUAAAGUGAUGUACGUUUGGGUAUAUAUCGCCAGCCUGAACCUCUACGCCAGAAAUGGCAGCUUUAUCAUGGGUUAGGACGAUAUUUAAAAAACUUUCUGCGGCUUGCUUACUUUAGUAAGCUUUGUGGCUGAGGCAGAAUUCCUU
# DNA 1: TTTGCCCATACTGGGGACCA
# DNA 2: TGGTCCCCAGTATGGGCAAA
# B2: Nuclease A AAVS1-T3 guide ; AAVS1-T3 target (ssRNA ; dsDNA)
# RNA: UUGUGAGAAUGGUGCGUCCUGUUACAGUUAAGGCUCUUUGGAAACAAAGAAGCCUUAAUUGUAAAACGCCUAUAUGGUAAAGUGAUGUACGUUUGGGUAUAUAUCGCCAGCCUGAACCUCUACGCCAGAAAUGGCAGCUUUAUCAUGGGUUAGGACGAUAUUUAAAAAACUUUCUGCGGCUUGCUUACUUUAGUAAGCUUUGUGGCUGAGGCAGAAUUCCUU
# DNA 1: TTGTGAGAATGGTGCGTCCT
# DNA 2: AGGACGCACCATTCTCACAA
# Columns and labels:
# Details in all cases: tags: N-terminal SV40 NLS, C-terminal XTEN linker + nucleoplasmin NLS
# Nuclease A = target: T1, Nuclease A; experiment: cell_activity; PAM NGG (AGG); HEK293T
# Experimental: (§1) Approximately 16 hours prior to transfection, 25,000 HEK293T cells in DMEM/10% FBS+Pen/Strep (D10 media) were plated into each well of a 96-well plate. On the day of transfection, the cells were 50-90% confluent. For each well to be transfected, a mixture of Lipofectamine 2000™ (ThermoFisher Scientific) and Opti-MEM™ (ThermoFisher Scientific) was prepared and incubated at room temperature for 5 minutes (Solution 1). After incubation, the Lipofectamine 2000™: Opti-MEM™ mixture was added to a separate mixture containing the CRISPR nuclease plasmid (NLS-tagged), RNA guide plasmid, and Opti-MEM™ (Solution 2). In the case of negative controls, the CRISPR nuclease plasmid was excluded. Solutions 1 and 2 were mixed by pipetting up and down, then incubated at room temperature for 25 minutes. Following incubation, the Solution 1 and 2 mixture was added dropwise to each well of a 96-well plate containing the cells. Approximately 72 hours post transfection, cells were trypsinized by adding TrypLE™ (ThermoFisher Scientific) to the center of each well and incubating at 37° C. for approximately 5 minutes. D10 media was then added to each well and mixed to resuspend cells. The resuspended cells were centrifuged for 10 minutes to obtain a pellet, and the supernatant was discarded. The cell pellet was then resuspended in QuickExtract™ buffer (Lucigen®), and cells were incubated at 65° C. for 15 minutes, 68° C. for 15 minutes, and 98° C. for 10 minutes.
# (§2) Each Nuclease A variant and RNA guide (see Table 5) was cloned as described in Example 2. HEK293T cells were further transfected, followed by NGS analysis, as described in Example 2. For each target, indel ratios, referring to the percentage of NGS reads comprising indels, were calculated for Nuclease A (SEQ ID NO: 1) and for each variant of Nuclease A. The indel ratios shown in Table 6 were calculated as the average of two bioreplicates, each of which contained two technical replicates.
# [1] = target: T2, Nuclease A I67R/D568R/E706R; experiment: cell_activity; PAM NGG (AGG); HEK293T
# Experimental: as §1, §2
# Nuclease A I67R = target: T3, Nuclease A I67R; experiment: cell_activity; PAM NGG; HEK293T
Binder,activity (Nuclease A),activity [1],binding signal (Nuclease A I67R)
B1,0.049 indel ratio,0.325 indel ratio,4.43 fold vs Nuclease A
B2,0.044 indel ratio,0.37 indel ratio,7.07 fold vs Nuclease A
